Results from paper PMC8444507.

How the values were obtained:
[1] = biological target: SARS-CoV spike receptor-binding domain (S-RBD), wild-type (SARS-CoV) (UniProt P59594)
[2] = biological target: SARS-CoV-2 spike receptor-binding domain (S-RBD), wild-type (SARS-CoV-2) (UniProt P0DTC2)

## ACE2[W19/Y330]-Fc (from UniProt Q9BYF1 19-615) (Fc fusion)
[1]
  IC50 of entry inhibition, SARS-CoV pseudovirus on HEK293T-ACE2 cells: 0.34 µg/mL
[2]
  IC50 of entry inhibition, wild-type SARS-CoV-2 pseudovirus on HEK293T-ACE2 cells: 0.09 µg/mL

## ACE2[W19/W27/Y330]-Fc (from UniProt Q9BYF1 19-615) (Fc fusion)
[1]
  IC50 of entry inhibition, SARS-CoV pseudovirus on HEK293T-ACE2 cells: 0.49 µg/mL
[2]
  IC50 of entry inhibition, wild-type SARS-CoV-2 pseudovirus on HEK293T-ACE2 cells: 0.53 µg/mL

## ACE2[W27/Y330]-Fc (from UniProt Q9BYF1 19-615) (Fc fusion)
[1]
  IC50 of entry inhibition, SARS-CoV pseudovirus on HEK293T-ACE2 cells: 1.04 µg/mL
[2]
  IC50 of entry inhibition, wild-type SARS-CoV-2 pseudovirus on HEK293T-ACE2 cells: 0.25 µg/mL
